This note sets out measurements from paper PMC8782923, “A Klotho-derived peptide protects against kidney fibrosis by targeting TGF-β signaling” (Nature Communications, 2022).

Values joined by “and” are separate entries in the source; they are usually repeats but may differ in a detail not shown here. Equal values may be shown once.

The subject of this assay is NRK-49F cells. In words: α-SMA mRNA induced by TGF-β1 in NRK-49F cells (qRT-PCR). The class given is cell-based, rat. The following applies: TGF-β1 2 ng/ml, KP1 or sKlotho 10 µg/ml, individual values, n = 4, Fig. 1b. The protocol:
Normal rat kidney interstitial fibroblasts (NRK-49F) and human proximal tubular epithelial cells (HKC-8) were cultured at 37 °C. NRK-49F cells were serum-starved for 24 h and were pretreated with KP1 (10 µg/ml, 3 µM) for 1 h prior to incubation with TGF-β1 (#240-B; R&D Systems) at 2 ng/ml. Cells were collected at 45 min or 24 h after TGF-β1 treatment, respectively. Whole-cell lysates were prepared and subjected to Western blot analyses. For some experiments, cells were transiently transfected with expression vector human secreted Klotho (sKlotho) that only contains KL1 domain[48], by using Lipofectamine 2000 reagent (Invitrogen, Grand Island, NY) prior to treatment with TGF-β1.
Total RNA was isolated from NRK-49F cells by using a TRIzol RNA isolation system (Invitrogen, Carlsbad, CA). The cDNA was synthesized using 2 µg of RNA in 20 µl of reaction buffer containing AMV-RT (Promega, Madison, WI), random primers, and oligo primers at 42 °C for 60 min. Quantitative, real-time PCR (qRT-PCR) was performed using a Platinum SYBR Green qPCR Super Mix-UDG kit (Invitrogen). The sequences of the primer pairs: F: […]; R: […]. QPCR data were collected by Step one software v2.2.2.
For orientation: Real-time PCR tracks product formation cycle by cycle.

B1: sKlotho: soluble Klotho; expression vector human secreted Klotho contains only KL1 domain (protein)
chain: EPGDGAQTWARFSRPPAPEAAGLFQGTFPDGFLWAVGSAAYQTEGGWQQHGKGASIWDTFTHHPLAPPGDSRNASLPLGAPSPLQPATGDVASDSYNNVFRDTEALRELGVTHYRFSISWARVLPNGSAGVPNREGLRYYRRLLERLRELGVQPVVTLYHWDLPQRLQDAYGGWANRALADHFRDYAELCFRHFGGQVKYWITIDNPYVVAWHGYATGRLAPGIRGSPRLGYLVAHNLLLAHAKVWHLYNTSFRPTQGGQVSIALSSHWINPRRMTDHSIKECQKSLDFVLGWFAKPVFIDGDYPESMKNNLSSILPDFTESEKKFIKGTADFFALCFGPTLSFQLLDPHMKFRQLESPNLRQLLSWIDLEFNHPQIFIVENGWFVSGTTKRDDAKYMYYLKKFIMETLKAIKLDGVDVIGYTAWSLMDGFEWHRGYSIRRGLFYVDFLSQDKMLLPKSSALFYQKLIEKNGFPPLPENQPLEGTFPCDFAWGVVDNYIQVSQLTKPISSLTKPYH
As for B1, the “α-SMA mRNA expression (relative)” value was 10.7876 and 4.655 and 3.074 and 8.483.
